# Source: patent US20250340890, “DNA […] AS UNIVERSAL INHIBITORS OF SPIKE PROTEIN/HACE2 INTERACTIONS” (Bowling Green State University, published 2025)
# B1: A1C1 (ssDNA)
# DNA: CGGGACGACGACGGACATCGTGAGAAATGGTCGACCTTGTGTCTGTCGTCCCG
# B2: S2A1C1 (ssDNA)
# DNA: CAAGGAGCGACCAGAGGGGCGGTTTATCAACAACTCGCTCTGTACACCACTCTTTG
# B3: S2A2 (ssDNA)
# DNA: CAAGGAGCGACCAGAGGCGGGTTCCTAGACTTGTACTCAGCCTTTACAGCTATGCCCTGGCATCCTTCAGCCC
# B4: S2A1 (ssDNA)
# DNA: CAAGGAGCGACCAGAGGGGCGGTTTATCAACAACTCGCTCTGTACACCACTCTTTGTTGGCATCCTTCAGCCC
# Columns and labels:
# [1] = target: SARS-CoV-2 WT spike S2 domain (SARS-CoV-2, UniProt P0DTC2 P0DTC2:686-1213)
# [2] = target: Bovine serum albumin (BSA) (Bos taurus, UniProt P02769 P02769:25-607)
# [3] = target: SARS-CoV-2 WT spike S1S2 extracellular domain (SARS-CoV-2, UniProt P0DTC2)
# PD-L1 = PD-L1 (UniProt Q9NZQ7 Q9NZQ7:19-238)
# Lysozyme = Lysozyme (UniProt P00698 P00698:19-147)
# SARS-CoV-2 WT spike S1 = SARS-CoV-2 WT spike S1 (SARS-CoV-2, UniProt P0DTC2 P0DTC2:14-685)
# Sequence of Bovine serum albumin (BSA) (P02769 25-607, one chain of several): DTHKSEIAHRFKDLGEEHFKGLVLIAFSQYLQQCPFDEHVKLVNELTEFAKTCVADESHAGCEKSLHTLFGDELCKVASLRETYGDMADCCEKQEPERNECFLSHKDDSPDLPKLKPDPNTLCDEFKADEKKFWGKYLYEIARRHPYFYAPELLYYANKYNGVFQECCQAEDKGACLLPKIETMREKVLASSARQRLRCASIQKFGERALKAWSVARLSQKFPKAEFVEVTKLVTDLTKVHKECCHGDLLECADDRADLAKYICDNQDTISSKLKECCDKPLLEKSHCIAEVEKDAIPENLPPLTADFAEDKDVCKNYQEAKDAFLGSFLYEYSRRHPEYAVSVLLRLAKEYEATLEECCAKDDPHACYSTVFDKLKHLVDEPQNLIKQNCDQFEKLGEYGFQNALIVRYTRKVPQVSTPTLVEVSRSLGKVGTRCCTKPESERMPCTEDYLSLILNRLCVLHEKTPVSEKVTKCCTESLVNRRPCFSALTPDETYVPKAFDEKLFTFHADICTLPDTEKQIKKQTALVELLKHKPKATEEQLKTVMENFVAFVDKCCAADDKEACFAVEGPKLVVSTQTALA
# Sequence of Lysozyme (P00698 19-147, one chain of several): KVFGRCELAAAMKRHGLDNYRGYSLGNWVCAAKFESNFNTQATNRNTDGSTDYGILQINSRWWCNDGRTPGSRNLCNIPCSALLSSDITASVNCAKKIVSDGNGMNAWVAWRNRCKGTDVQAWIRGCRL
# Sequence of PD-L1 (Q9NZQ7 19-238, one chain of several): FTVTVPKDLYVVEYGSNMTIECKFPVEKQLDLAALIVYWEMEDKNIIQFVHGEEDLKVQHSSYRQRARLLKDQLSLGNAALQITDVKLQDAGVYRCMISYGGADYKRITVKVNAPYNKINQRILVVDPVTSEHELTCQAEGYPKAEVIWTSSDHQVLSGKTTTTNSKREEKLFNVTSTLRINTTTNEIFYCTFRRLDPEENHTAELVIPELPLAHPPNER
Binder,binding result [1],binding result [2],binding result [3],also measured
CAAGGAGCGACCAGAGGCGGGTTCCTAGACTTGTACTCAGCCT (ssDNA) [S2A2C3],binds,,,
B1,,no binding,,
B2,binds,,,
B3,,,binds,
B4,,,binds,
AGGCGGGTTCCTAGACTTGTACTCAGCCT (ssDNA) [S2A2C1],,no binding,,binding result (PD-L1): no binding; binding result (Lysozyme): no binding; binding result (SARS-CoV-2 WT spike S1): no binding
